Entries after “also recorded” stand apart in the source; their conditions may differ.

Series [1] is described as follows: Isoelectric focusing gel electrophoresis. It is filed as physicochemical. On the procedure: Isoelectric Focusing Gel Electrophoresis: Isoelectric points were determined using a Pharmacia Biotech Multiphor 2 electrophoresis system with a multi temp 3 refrigerated bath recirculation unit and an EPS 3501 XL power supply. Pre-cast ampholine gels (Amersham Biosciences, pI range 2.5-10) were loaded with 5 μg of protein. Broad range pI marker standards (Amersham, pI range 3-10, 8 μL) were used to determine relative pI for the Mabs. Electrophoresis was performed at 1500 V, 50 mA for 105 minutes. The gel was fixed using a Sigma fixing solution (5×) diluted with purified water to 1×. Staining was performed overnight at room temperature using Simply Blue stain (Invitrogen). Destaining was carried out with a solution that consisted of 25% ethanol, 8% acetic acid and 67% purified water. Isoelectric points were determined using a Bio-Rad Densitometer relative to calibration curves of the standards.

For the next series, the target named is T1, HMG2 (Bos taurus, UniProt P40673).
T1 construct: from tissue; host or cells: calf thymus (as read from the sentence)
T1 sequence (P40673 1-209): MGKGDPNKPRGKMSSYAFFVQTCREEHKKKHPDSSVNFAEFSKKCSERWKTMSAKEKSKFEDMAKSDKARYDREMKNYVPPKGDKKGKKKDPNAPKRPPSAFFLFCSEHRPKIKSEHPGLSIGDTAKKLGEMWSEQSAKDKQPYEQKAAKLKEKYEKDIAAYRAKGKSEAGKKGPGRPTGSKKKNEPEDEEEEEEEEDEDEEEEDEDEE
The experiment in a line: Binding to HMG1 vs. HMG2 ELISA. Details: species or system calf. As to conditions: immobilized antigen. On the procedure: Binding to HMG1 vs. HMG2: Ultra high-binding ELISA plates (ThermoLab systems, #3855) were coated with either 5 ug/mL of Calf thymus HMGB1 or HMBG2 diluted in 10 mM Phosphate buffered saline (PBS), pH 7.2 and incubate overnight at 4 degrees. The plates were washed twice with Ca and Mg free PBS and 100 microliters of anti-HMGB1 antibody diluted in 10 mM PBS, pH 7.2+1% bovine serum albumin (BSA) to a final concentration of 10 ug/mL was added to each well and the plates were incubated 1 hour at room temperature. The wells were washed three times with 100 μl of PBS, pH 7.2. HRP labeled goat-anti-human IgG Kappa-chain (KPL, #14-10-10) and goat-anti-human IgG Lambda-chain (KPL, #14-10-11) were diluted in 10 mM PBS+1% BSA 1:1000 and 100 μl were added to each well and incubated for 1 hour at room temperature. The wells were then washed three times with 100 μl of PBS, pH 7.2. OPD substrate (Pierce chemical company, #34006) was prepared following the manufacturers instructions and 100 μl of prepared substrate was added to each well and the plates incubated at room temperature in the dark for 20-30 minutes. The reaction was stopped with the addition of 100 μl of 2M H2SO4, and the plates read on a plate reader at a wavelength of 490 nm.

Series [2] relates to HMG1 (recombinant, native; immobilized, soluble). The experiment in a line: Direct and sandwich (capture) ELISA comparing forms of HMG1. It is filed as binding. As to conditions: two ELISA formats, rHMG1. On the procedure: Direct ELISA (immobilized HMG1): Individual wells of a 96-well immunoplate (EIA/RIA plate, High binding, Costar) were coated with HMGB-1 at 5 μg/ml in PBS at 4° C. overnight. The plate was then blocked with 4% milk powder dissolved in PBS at 37° C. for 1 hour. The blocking solution was removed and replaced with human anti-HMG1 antibodies at various concentrations (see FIG. 4A). The plate was then washed (ELX-405 Plate washer, BIO-TEK) and secondary antibody (anti-human IgG-HRP, PIERCE) was added at a final concentration of 1:125,000 at 37° C. for 1 hour. HRP activity was detected with Sureblue HRP substrate (KPL). Plates were read at 450 nm using a Kinetic Microplate Reader (Molecular Devices).
Sandwich ELISA (soluble HMG1): Immunoplates (EIA/RIA plate, High binding, Costar) were coated with anti human IgG Fc at 10 μg/ml in PBS (pH 7.2) and incubated at 4° C. overnight. The coating reagent was removed and the plates were rinsed briefly with PBS. The plates were then blocked with 4% milk for 1 hour at 37° C. and rinsed with PBS. The anti-HMG1 antibodies were diluted in 4% milk. For serial dilutions, the antibodies were used at a starting concentration of 20 μg/ml. The diluted anti-HMG1 antibodies were then added into plate and incubated for 1 hr at 37° C. The plate was then washed 10 times with PBST (PBS/0.1% tween 20) and incubate with antigen (HMGB1, 2 μg/ml; or 0.7 μg/ml for native HMGB1) in 4% milk and incubated at 37° C. for 1 h. The plate was then wash 10 times and incubated with mouse anti-HMGB1, 1 μg/ml in 4% milk at 37° C. for 1 h. The plate was washed 10 times and incubated with anti-mouse IgG-HRP at 1:1000 at 37° C. for 1 h. The plate was then washed and developed. HRP activity was detected with Sureblue HRP substrate (KPL). Plates were read at 450 nm using a Kinetic Microplate Reader (Molecular Devices).

Series [3] is described as follows: Differential scanning calorimetry. The series is classed as physicochemical. More on the design: unit: °C. As to conditions: in °C (unit assumed). On the procedure:
Differential Scanning Calorimetry: Thermal melting temperatures (Tm) were measured with a VP-DSC (MicroCal, LLC) using a scan rate of 1.0° C./min and a temperature range of 25-120° C. A filter period of 8 seconds was used along with a 5 minute pre-scan thermostating. Samples were prepared by dialysis into 25 mM Histidine-HCl, pH 6 using Pierce dialysis cups (3.5 kD). Average Mab concentrations were 50 μg/mL as determined by A280. Melting temperatures were determined following manufacturer procedures using Origin software supplied with the system. Briefly, multiple baselines were run with buffer in both the sample and reference cell to establish thermal equilibrium. After the baseline was subtracted from the sample thermogram, the data were concentration normalized and fitted using the deconvolution function.

The target of series [4] is T2, recombinant HMG1 binding to RAGE-Fc (Homo sapiens, UniProt P09429).
T2 construct: made in house; host or cells: E. coli (HMG1)
T2 sequence (P09429 1-215): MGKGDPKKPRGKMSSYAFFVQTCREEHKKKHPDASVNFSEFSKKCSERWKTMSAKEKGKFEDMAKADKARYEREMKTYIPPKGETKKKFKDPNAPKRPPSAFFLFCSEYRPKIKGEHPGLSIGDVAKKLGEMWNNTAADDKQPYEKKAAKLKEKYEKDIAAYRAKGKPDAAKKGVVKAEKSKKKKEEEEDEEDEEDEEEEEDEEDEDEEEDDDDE
The experiment in a line: HMG1 binding to RAGE-Ig by ELISA. The conditions noted are these: at the concentrations tested. On the procedure: HMG1 binding to RAGE-Ig by ELISA: 50 μl/well of RAGE-Fc fusion protein at 5 μg/ml in PBS was added to each well of an ELISA plate and incubated overnight at 4° C. The plate was then blocked with 200 μl of 5% milk at 37° C. for 1 hr and washed 3× with PBS/Tween. 50 μl/well of diluted HMGB1 solution. For dose curves, HMGB1 concentrations started at 4 ug/ml in PBS. For antibody blocking the HMGB1 was preincubated in another plate with human anti-HMG1 antibodies or buffer, then transferred to the RAGE-coated plate. The plates were then incubated at room temperature for 2 hours and washed 3×. To detect any HMG1 bound to the immobilized RAGE-Fc a mixture of biotinylated mouse anti-HMG1 mAbs (10D4, 4H11, 3E10 and 5C12) each at 1 ug/ml, total Ab: 4 ug/ml, were added to each well and the plate was incubated for 1 hour at room temperature. The plate was then washed and Strepavidin-HPR was added to each well and incubated 15 min. The plate was then washed 3× and blotted dry. 100 μl of TMB developing agent was added and the plate read at 650 nm. Values were calculated as percent of inhibition with HMG1 alone equal to 0% inhibition. The data in FIG. 9 and summarized in Table 1 represent the average of two separate experiments.

B1: G34: human anti-HMG1 antibody; VL/VH aa SEQ ID NO: 50/52 (antibody, listed as Homo sapiens, V domains shown)
VH: EVQLLESGGGLVQPGGSLRLSCAASGFTFSHYMMGWVRQAPGKGLEWVSRISPSGGGTVYADSVKGRFTISRDNSKNTLYLQMNSLRAEDTAVYYCARGGNWNYISYYYYYLDVWGKGTTVTVSS
VL: AQDIQMTQSPSSLSASVGDRVAITCRASQSIDTYLNWYQQKPGKAPKLLIYAASKLEDGVPSRFSGSGTGTDFTLTIRSLQPEDFASYFCQQSYSSPGITFGPGTKVEIK
As to B1, the PI in series [1] is roughly 8.7. The “relative binding to HMG1 and HMG2” value with HMG2 is listed as “specific for HMG1”. Moreover, the “binding to immobilized versus soluble HMG1” value in series [2] is “bind better to soluble rHMG1”. Besides, in series [3], the Tm is given as roughly 75. Besides, the “block of recombinant HMG1 binding to RAGE” value (“block” below) in series [4] is listed as “do not at the concentrations tested”.

B2: G12: human anti-HMG1 antibody; VL/VH aa SEQ ID NO: 38/40 (antibody, listed as Homo sapiens, V domains shown)
VH: EVQLLESGGGLVQPGGSLRLSCAASGFTFSYYMMTWVRQAPGKGLEWVSSISPSGGYTIYADSAKGRFTISRDNSKNTLYLQMNSLRAEDTAVYYCARALSTGSFWDYWGQGTLVTVSS
VL: AQDIQMTQSPGTLSLSPGERATLSCRASESLTSTYVAWYQHKPGQAPRLLIHGGSTRATGIPVRFSGSGSGTDFTLTIATLEPEDFAVYYCQQYGSSPYTFGQGTKLEIK
Take B2: the PI in series [1] is on record as 8.6. The “relative binding to HMG1 and HMG2” value with HMG2 is “specific for HMG1”. The “binding to immobilized versus soluble HMG1” value in series [2] is given as “little difference in binding to immobilized or soluble HMG1”. For the same molecule, the Tm in series [3] is 78.8. Moreover, the “block” value in series [4] is “did not inhibit RAGE binding; also recorded: do not at the concentrations tested”.

B3: S14: human anti-HMG1 antibody; VL/VH aa SEQ ID NO: 66/68 (antibody, listed as Homo sapiens, V domains shown)
VH: EVQLLESGGGLVQPGGSLRLSCAASGFTFSWYETGWVRQAPGKGLEWVSGISPSGGYTQYADSVKGRFTISRDNSKNTLYLQMNSLRAEDTAVYYCARSGVGATKIFDYWGQGTLVTVSS
VL: AQDIQMTQSPSSLSASVGDRVTIICRANERINTYLNWYQQKPGKAPKLLISGTSSLESGVPSRFSGSGSGTEFTLSISSLQPEDFASYYCQQSYSSPYTFGQGTNLEIR
With B3, the PI in series [1] is reported as 8.62. For the same molecule, in the series with HMG2, the “relative binding to HMG1 and HMG2” value is “specific for HMG1”. For the same molecule, the Tm in series [3] worked out at 70.7. Also, the “block” value in series [4] is “did not inhibit RAGE binding; also recorded: do not at the concentrations tested”.

B4: G16: human anti-HMG1 antibody; VL/VH aa SEQ ID NO: 42/44 (antibody, listed as Homo sapiens, V domains shown)
VH: EVQLLESGGGLVQPGGSLRLSCAASGFTFSWYKMTWVRQAPGKGLEWVSSISPSGGFTSYADSVKGRFTISRDNSKNTLYLQMNSLRAEDTAVYYCARDLDIRHAFDIWGQGTMVTVSS
VL: AQDIQMTQSPGTLSLSPGESGTLSCRASESVSSRHFAWYQQKPGQAPRLLIYGASSRPTGIPDRFSGSGSGTDFTLTLSRLEPEDFAVYFCQYYGSSPYTFGGGTKVEMK
Take B4: the “binding to immobilized versus soluble HMG1” value in series [2] is recorded as “bound slightly better to immobilized rHMG1”. In series [4], the “block” value is on record as “did not inhibit RAGE binding; also recorded: do not at the concentrations tested”.

The values are drawn from patent US20080311122A1, “Antagonists of Hmgb1 and/or Rage and Methods of Use Thereof” (Medimmune, LLC, priority 2005, published 2008).
